Data published in PMC12421882, “ThIPK1 regulates lignocellulolytic enzyme expression during wood degradation in white-rot fungi” (mBio, 2025).

Substrate: O=P(O)(O)O[C@@H]1[C@@H](OP(=O)(O)O)[C@H](OP(=O)(O)O)[C@H](O)[C@H](OP(=O)(O)O)[C@H]1OP(=O)(O)O
Test: Kinase-Glo Max luminescent kinase assay; Michaelis-Menten nonlinear regression
Assay type: biochemical, Trametes hirsuta
Conditions: 300 µM ATP, 5 mM MgCl2, 50 mM NaCl, 50 mM Tris pH 7.5, 28°C

B1: ThIPK1 (Trametes hirsuta) (protein)
chain: MENDAPIIGDTSPQDWKYISEGGSTIVFSYVGPPHPSFDGTALRLRKGPTPAHEDPEKYEKPSLAPAEPSQEPEASAAGGADDEEPDDPTVVFQRTVIERLVPTAHLPRLQPVRVARAWLAQLAARTEALRPAERRARDAIDLGRRKAVLATDLVGGEGWAVEIKPKWGFLPQPAYLSPETRAIKTRTCRFCMHAQLKKTEGEDVALGYCPLDLYSGDAGRVERALRELWDVWVGSGGAVNNLRVFVQGKMVKPSADPASLAPLTAQLLPPTSTTSPDSEPPAATRPPDTLRDAFIATLLPLLLDTPVLRTLSTLQRTLDALDIEGLAALWARVHPAHALGTGPGPGAADPDIAAWARFVDEHIDRLAQAAEDAKGAGEGEGQGENGSEVPATEDELRYRVAAYLLGASFKDCSLILRMRPHAQGTVTVIDLDVKSADRLGKWAALDREIVDAYRGVSNARRCVDAHYGAVPLP
notes: full-length cDNA in pET28a(+), E. coli BL21(DE3), Ni-NTA
With B1 the Km was 31.42 µM.
